Measured values as given in publication PMC11137118 (2024).

How the values were obtained:
[1] = target: hIL-22-ScFv (human IL-22 fused to a pancreas/liver targeting single chain variable fragment, linker (G4S)1) (human, UniProt Q9GZX6); experiment: SPR
[2] = target: all variants (mouse) of IL-22-ScFv; experiment: SPR

- Kd [1]: 3.45 nM
- koff [1]: 0.000781 s⁻¹
- Kd [2]: 2.82 nM
- koff [2]: 0.000872 s⁻¹
B1: IL-22RA1 receptor (receptor)
chain: HAPEDPSDLLQHVKFQSSNFENILTWDSGPEGTPDTVYSIEYKTYGERDWVAKKGCQRITRKSCNLTVETGNLTELYYARVTAVSAGGRSATKMTDRFSSLQHTTLKPPDVTCISKVRSIQMIVHPTPTPIRAGDGHRLTLEDIFHDLFYHLELQVNRTYQMHLGGKQREYEFFGLTPDTEFLGTIMICVPTWAKESAPYMCRVKTLPDRTWTYSFSGAFLFSMGFLVAVLCYLSYRYVTKPPAPPNSLNVQRVLTFQPLRFIQEHVLIPVFDLSGPSSLAQPVQYSQIRVSGPREPAGAPQRHSLSEITYLGQPDISILQPSNVPPPQILSPLSYAPNAAPEVGPPSYAPQVTPEAQFPFYAPQAISKVQPSSYAPQATPDSWPPSYGVCMEGSGKDSPTGTLSSPKHLRPKGQLQKEPPAGSCMLGGLSLQEVTSLAMEESQEAKSLHQPLGICTDRTSDPNVLHSGEEGTPQYLKGQLPLLSSVQIEGHPMSLPLQPPSRPCSPSDQGPSPWGLLESLVCPKDEAKSPAPETSDLEQPTELDSLFRGLALTVQWES
